Measured values reported in patent US20120148499A1.
Primed or numbered codes have the meaning given here. 5,6FAM″ = fluorescein-5(6)-carbonyl on the lysine (K(5,6FAM))

Target: purified myelin basic protein (MBP)
Experiment: peptide binding to MBP-crosslinked beads against control beads without MBP

fold increase in binding to MBP crosslinked beads over control beads (no MBP): 10 fold
B1: acetyl-…(5,6FAM)-amide (peptide)
peptide: Ac-SHSTYTDWLNFWAWPGK(5,6FAM″)-NH2
